For experiment [1], the target named is T1, ヒトFcγRIIb (human, UniProt P31994 43-217).
T1 construct: extracellular domain; for the crystals it was expressed with kifunensine and its N-glycans trimmed with Endo F1; also called FcγRIIb細胞外領域
T1 sequence (looked up): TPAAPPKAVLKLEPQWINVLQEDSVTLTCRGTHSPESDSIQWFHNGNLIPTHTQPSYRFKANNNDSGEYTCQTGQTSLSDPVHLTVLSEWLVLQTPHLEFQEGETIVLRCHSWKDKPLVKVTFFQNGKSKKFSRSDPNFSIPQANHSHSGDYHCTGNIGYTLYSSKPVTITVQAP
Kind of experiment: SPR, KD; reference IL6R-BP230/IL6R-L.

Experiment [2] concerns the target T2, ヒトFcγRIIa (R) (human, UniProt P12318 34-217).
T2 construct: extracellular domain; N-glycans trimmed with Endo F1/F2/F3 for the crystals; also called FcγRIIa R型
T2 sequence (looked up): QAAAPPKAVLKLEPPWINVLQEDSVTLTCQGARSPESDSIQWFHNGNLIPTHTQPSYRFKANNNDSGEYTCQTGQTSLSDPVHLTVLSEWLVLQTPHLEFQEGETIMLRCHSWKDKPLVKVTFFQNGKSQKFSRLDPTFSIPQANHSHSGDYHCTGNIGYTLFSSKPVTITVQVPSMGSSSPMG
Put plainly: SPR, KD; reference IL6R-BP230/IL6R-L.

Experiment [3] has as its target T3, ヒトFcγRIIa (H) (human, UniProt P12318 34-217).
T3 construct: extracellular domain; also called FcγRIIa H型
T3 sequence (looked up): T2 sequence (looked up) with R134H
Put plainly: SPR, KD. A general note: SPR reads the build-up and loss of mass on a sensor chip optically.

The target in experiment [4] is T4, ヒトFcγRIa (human, UniProt P12314 16-292). Kind of experiment: SPR, KD.
For experiment [5], the target named is T2, ヒトFcγRIIa (R). Put plainly: SPR, KD.
The next experiment addresses T5, マウスFcγRIIb (mouse, UniProt P08101 30-210, limits assumed).
T5 construct: also called mouse FcγRIIb
T5 sequence (looked up): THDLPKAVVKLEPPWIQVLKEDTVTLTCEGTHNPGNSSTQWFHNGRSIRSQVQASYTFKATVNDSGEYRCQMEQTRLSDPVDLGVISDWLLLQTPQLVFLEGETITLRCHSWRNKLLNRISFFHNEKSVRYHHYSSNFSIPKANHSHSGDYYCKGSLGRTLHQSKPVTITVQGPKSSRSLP
Put plainly: SPR, Biacore; antibody captured on immobilised human FcRn, FcγR as analyte, pH 7.4, 25C.

Another experiment has as its target T6, マウスFcγRI (mouse, UniProt P26151 25-297, limits assumed).
T6 construct: also called mouse FcγRI
T6 sequence (looked up): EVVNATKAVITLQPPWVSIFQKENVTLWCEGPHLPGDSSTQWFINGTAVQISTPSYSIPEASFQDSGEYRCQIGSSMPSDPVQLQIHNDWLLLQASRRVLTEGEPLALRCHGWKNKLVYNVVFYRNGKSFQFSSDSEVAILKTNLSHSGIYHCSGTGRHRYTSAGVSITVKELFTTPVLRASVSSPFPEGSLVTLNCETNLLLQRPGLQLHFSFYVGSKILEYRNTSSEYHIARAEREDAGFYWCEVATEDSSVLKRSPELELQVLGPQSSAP
Described as above.

A further experiment deals with T7, マウスFcγRIII (mouse, UniProt P08508 31-215, limits assumed).
T7 construct: also called mouse FcγRIII
T7 sequence (looked up): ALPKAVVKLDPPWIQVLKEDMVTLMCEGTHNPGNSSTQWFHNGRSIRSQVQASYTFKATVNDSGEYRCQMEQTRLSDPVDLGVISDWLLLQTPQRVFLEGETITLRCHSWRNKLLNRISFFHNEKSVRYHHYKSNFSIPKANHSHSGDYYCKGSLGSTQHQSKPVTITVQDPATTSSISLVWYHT
The description is as above.

The target in experiment [6] is T2, ヒトFcγRIIa (R). Kind of experiment: SPR, figure legend (Fig. 4).
The target of experiment [7] is T1, ヒトFcγRIIb. Put plainly: SPR, figure legend (Fig. 6).
In experiment [8] the target is T3, ヒトFcγRIIa (H). Kind of experiment: SPR, figure legend (Fig. 5).
The target in a further experiment is T8, ヒトFcRn (human, UniProt P55899 24-290; P61769 21-119, limits assumed).
T8 construct: also called human FcRn; complex of human FcRn and human beta-2 microglobulin
Put plainly: SPR, figure legends of Figs. 3-11.

The next experiment addresses T9, ヒトFcγRIIIa (F) (human, UniProt P08637 17-208).
T9 construct: extracellular domain
Kind of experiment: SPR, figure legend (Fig. 7).

The target in experiment [9] is T4, ヒトFcγRIa. Put plainly: SPR, figure legend (Fig. 3).
Experiment [10] has as its target T10, マウスFcRn (mouse, UniProt Q61559 22-297, limits assumed).
T10 construct: also called mouse FcRn
T10 sequence (looked up): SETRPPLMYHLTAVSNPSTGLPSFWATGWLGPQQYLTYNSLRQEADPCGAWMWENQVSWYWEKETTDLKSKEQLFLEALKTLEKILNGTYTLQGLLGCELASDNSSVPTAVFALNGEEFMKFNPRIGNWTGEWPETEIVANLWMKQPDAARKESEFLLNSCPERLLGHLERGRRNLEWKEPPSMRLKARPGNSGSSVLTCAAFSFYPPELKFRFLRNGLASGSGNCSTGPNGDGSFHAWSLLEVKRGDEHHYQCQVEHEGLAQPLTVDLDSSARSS
Put plainly: SPR, Biacore T100; antibody captured on protein L, FcRn as analyte, pH 7.0, 25C; reference Fv4-IgG1.

Experiment [11] addresses T10, マウスFcRn. Put plainly: SPR, Biacore T100, pH 7.0, 25C.
Experiment [12] has as its target T1, ヒトFcγRIIb. Put plainly: SPR, KD; reference IL6R-B3/IL6R-L; the lowest of the named variants.
Experiment [13] concerns the target T1, ヒトFcγRIIb. Kind of experiment: SPR, KD; reference IL6R-B3/IL6R-L; the highest of the named variants.
For experiment [14], the target named is T1, ヒトFcγRIIb. Kind of experiment: SPR, KD; reference IL6R-B3/IL6R-L.
Experiment [15] addresses T2, ヒトFcγRIIa (R). Put plainly: SPR, KD; reference IL6R-B3/IL6R-L.

Positions count from the first letter of the chain named.

T4 sequence (P12314 16-292): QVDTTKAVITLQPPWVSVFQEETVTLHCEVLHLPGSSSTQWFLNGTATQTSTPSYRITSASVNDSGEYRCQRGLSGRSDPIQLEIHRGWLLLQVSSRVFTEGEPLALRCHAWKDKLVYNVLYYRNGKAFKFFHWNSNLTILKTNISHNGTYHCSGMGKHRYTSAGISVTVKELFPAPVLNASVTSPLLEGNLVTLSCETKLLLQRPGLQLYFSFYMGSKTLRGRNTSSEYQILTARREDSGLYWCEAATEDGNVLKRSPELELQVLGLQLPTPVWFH
T8 sequence (P55899 24-290 limits assumed, chain 1 of 2): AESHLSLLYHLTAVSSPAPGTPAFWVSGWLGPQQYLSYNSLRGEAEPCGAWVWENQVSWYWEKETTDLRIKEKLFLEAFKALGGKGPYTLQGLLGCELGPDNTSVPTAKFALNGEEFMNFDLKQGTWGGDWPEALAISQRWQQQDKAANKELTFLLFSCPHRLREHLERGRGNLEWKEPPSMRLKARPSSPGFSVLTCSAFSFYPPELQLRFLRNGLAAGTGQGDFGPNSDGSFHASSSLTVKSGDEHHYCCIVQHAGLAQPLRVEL
T8 sequence (P61769 21-119 limits assumed, chain 2 of 2): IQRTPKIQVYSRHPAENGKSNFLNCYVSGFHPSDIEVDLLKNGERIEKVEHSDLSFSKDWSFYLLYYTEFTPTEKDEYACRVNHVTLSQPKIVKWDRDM
T9 sequence (P08637 17-208): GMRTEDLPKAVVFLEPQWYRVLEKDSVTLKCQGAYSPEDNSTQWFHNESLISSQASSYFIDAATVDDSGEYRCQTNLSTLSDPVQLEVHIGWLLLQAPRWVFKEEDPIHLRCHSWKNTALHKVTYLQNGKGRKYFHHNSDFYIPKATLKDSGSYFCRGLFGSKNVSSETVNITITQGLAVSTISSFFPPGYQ

B1: IL6R-BP478/IL6R-L (antibody)
chain 1: QVQLQESGPGLVKPSETLSLTCAVSGHSISHDHAWSWVRQPPGEGLEWIGFISYSGITNYNPSLQGRVTISRDNSKNTLYLQMNSLRAEDTAVYYCARSLARTTAMDYWGEGTLVTVSSASTKGPSVFPLAPCSRSTSESTAALGCLVKDYFPEPVTVSWNSGALTSGVHTFPAVLQSSGLYSLSSVVTVPSSSLGTKTYTCNVDHKPSNTKVDKRVESKYGPPCPPCPAPDLLGDDSVFLFPPKPKDTLMISRTPEVTCVVVDVSDEDGEVKFNWYVDGVEVHNAKTKPREEQDNSTYRVVSVLTVLHQDWLNGKEYKCKVSNKALPRPIEKTISKAKGQPREPQVYTLPPSRDELTKNQVSLTCLVKGFYPSDIAVEWESNGQPENNYKTTPPVLDSDGSFFLYSKLTVDKSRWQQGNVFSCSVMHEALHNHYTQESLSLSP
chain 2: not shown
For the molecule B1, the “fold enhancement of binding against IL6R-BP230/IL6R-L” value with ヒトFcγRIIb [1] amounted to 1.1 fold. Further, in the experiment with ヒトFcγRIIa (R) [2], the “binding relative to IL6R-BP230/IL6R-L” value was 0.9 fold.

B2: IL6R-B3/IL6R-L (antibody, human IgG1)
heavy: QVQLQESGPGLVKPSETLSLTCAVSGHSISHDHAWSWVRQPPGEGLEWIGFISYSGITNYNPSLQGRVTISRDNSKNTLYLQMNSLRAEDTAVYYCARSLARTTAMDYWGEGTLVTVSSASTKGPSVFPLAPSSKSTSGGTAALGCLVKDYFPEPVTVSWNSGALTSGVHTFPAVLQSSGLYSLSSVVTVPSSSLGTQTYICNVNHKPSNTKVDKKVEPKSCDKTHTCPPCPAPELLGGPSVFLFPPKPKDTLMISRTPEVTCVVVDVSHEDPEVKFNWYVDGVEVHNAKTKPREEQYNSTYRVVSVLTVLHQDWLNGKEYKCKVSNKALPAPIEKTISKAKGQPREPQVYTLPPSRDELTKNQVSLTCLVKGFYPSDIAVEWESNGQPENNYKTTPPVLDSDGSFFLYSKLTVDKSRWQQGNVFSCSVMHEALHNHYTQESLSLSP
light: DIQMTQSPSSLSASVGDRVTITCRASQDISSYLNWYQQKPGKAPKLLIYYTSRLHSGVPSRFSGSGSGTDFTFTISSLQPEDIATYYCQQGNTLPYTFGQGTKVEIK
As for B2, the binding result in the experiment with ヒトFcγRIIa (H) [3], in the experiment with ヒトFcγRIa [4] and in the experiment with ヒトFcγRIIa (R) [5] was “binds” each time.

B3: Fv4-IgG1-F157 (antibody)
heavy: QVQLQESGPGLVKPSETLSLTCAVSGHSISHDHAWSWVRQPPGEGLEWIGFISYSGITNYNPSLQGRVTISRDNSKNTLYLQMNSLRAEDTAVYYCARSLARTTAMDYWGEGTLVTVSSASTKGPSVFPLAPSSKSTSGGTAALGCLVKDYFPEPVTVSWNSGALTSGVHTFPAVLQSSGLYSLSSVVTVPSSSLGTQTYICNVNHKPSNTKVDKKVEPKSCDKTHTCPPCPAPELLGGPSVFLFPPKPKDTLMISRTAEVTCVVVDVSHEDPEVKFNWYVDGVEVHNAKTKPREEQYNSTYRVVSVLTPLHQDWLNGKEYKCKVSNKALPAPIEKTISKAKGQPREPQVYTLPPSRDELTKNQVSLTCLVKGFYPSDIAVEWESNGQPENNYKTTPPVLDSDGSFFLYSKLTVDKSRWQQGNVFSCSVLHEALHYHYTQKSLSLSP
light: DIQMTQSPSSLSASVGDSVTITCQASTDISSHLNWYQQKPGKAPELLIYYGSHLLSGVPSRFSGSGSGTDFTFTISSLEAEDAATYYCGQGNRLPYTFGQGTKVEIERTVAAPSVFIFPPSDEQLKSGTASVVCLLNNFYPREAKVQWKVDNALQSGNSQESVTEQDSKDSTYSLSSTLTLSKADYEKHKVYACEVTHQGLSSPVTKSFNRGEC
notes: also called VH3-IgG1-F157/VL3-CK
On to B3, for which the binding result with マウスFcγRIIb, with マウスFcγRI, with マウスFcγRIII, with ヒトFcγRIIa (R) [6], with ヒトFcγRIIb [7] and with ヒトFcγRIIa (H) [8] was “binds” each time. Further, the binding result in the experiment with ヒトFcRn, with ヒトFcγRIIIa (F) and with ヒトFcγRIa [9] was “binds” in each case.

B4: Fv4-hF1 (antibody, human IgG1, kappa)
heavy: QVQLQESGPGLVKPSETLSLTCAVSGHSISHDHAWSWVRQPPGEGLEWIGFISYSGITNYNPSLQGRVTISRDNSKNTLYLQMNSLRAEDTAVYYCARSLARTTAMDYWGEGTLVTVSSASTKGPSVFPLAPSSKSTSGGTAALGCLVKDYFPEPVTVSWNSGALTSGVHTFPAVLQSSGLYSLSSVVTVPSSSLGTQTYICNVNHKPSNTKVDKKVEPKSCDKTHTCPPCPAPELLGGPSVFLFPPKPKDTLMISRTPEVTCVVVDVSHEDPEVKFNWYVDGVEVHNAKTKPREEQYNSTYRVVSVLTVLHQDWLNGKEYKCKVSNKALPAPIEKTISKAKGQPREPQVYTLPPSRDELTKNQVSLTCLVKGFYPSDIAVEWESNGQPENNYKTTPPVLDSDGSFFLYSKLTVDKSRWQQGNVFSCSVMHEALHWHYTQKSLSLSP
light: B3 light
Turning to B4, in the experiment with マウスFcRn [10], the “fold improvement of affinity against IgG1” value is about 24.7 fold. Further, in the experiment with マウスFcRn [11], the affinity, expressed as Kd, was 150 nM.

B5: IL6R-BP495/IL6R-L (antibody)
chain 1: QVQLQESGPGLVKPSETLSLTCAVSGHSISHDHAWSWVRQPPGEGLEWIGFISYSGITNYNPSLQGRVTISRDNSKNTLYLQMNSLRAEDTAVYYCARSLARTTAMDYWGEGTLVTVSSASTKGPSVFPLAPSSKSTSGGTAALGCLVKDYFPEPVTVSWNSGALTSGVHTFPAVLQSSGLYSLSSVVTVPSSSLGTQTYICNVNHKPSNTKVDKKVEPKSCDKTHTCPPCPAPELLGDDSVFLFPPKPKDTLMISRTPEVTCVVVDVGEEDGEVKFNWYVDGVEVHNAKTKPREEQDNSTYRVVSVLTVLHQDWLNGKEYKCKVSNKALPRPIEKTISKAKGQPREPQVYTLPPSRDELTKNQVSLTCLVKGFYPSDIAVEWESNGQPENNYKTTPPVLDSDGSFFLYSKLTVDKSRWQQGNVFSCSVMHEALHNHYTQESLSLSP
chain 2: not shown
As to B5, the “fold enhancement of binding, IL6R-B3/IL6R-L = 1” value with ヒトFcγRIIb [12] amounted to 321 fold.

B6: IL6R-BP489/IL6R-L (antibody)
chain 1: B5 chain 1 with E235D, V266I, G269A, P398M
chain 2: not shown
For the molecule B6, the “fold enhancement of binding, IL6R-B3/IL6R-L = 1” value in the experiment with ヒトFcγRIIb [13] worked out at 3100 fold.

B7: IL6R-BP230/IL6R-L (antibody)
chain 1: B5 chain 1 with E235D, G269S, E270D
chain 2: not shown
Consider B7, for which the “fold enhancement of binding against IL6R-B3/IL6R-L” value with ヒトFcγRIIb [14] is about 150 fold; with ヒトFcγRIIa (R) [15], about 1.9 fold. For the same molecule, in the experiment with ヒトFcγRIIb [14], the “fold improvement of binding activity against IL6R-B3” value was found to be 148 fold.

The term Kd denotes a measure of binding affinity in units of concentration. Lower therefore signals higher affinity.

Source of the values: patent JP2014043405A (dated 2014).
